Among the data in article PMC9671094 are stoichiometry N (Fab per trimer) values, retold here.

The assay deals with ApexGT2 trimer (HIV-1 isolate BG505). In words: cryo-EM structure.

B1: PCT64 35S Fab (Fab, V domains shown)
VH: EVQLVESGGGLVKPGGSLRLACVGSEFTFSEAWMTWVRQAPGKGLEWVGHMRPTTEGGAKDYAAAVRGRFTIARDDSKSTLYLQMNSLKIEDTGVYYCMTGVERGDFWSDDYSQHYNTYLIDVWGKGTTVTVSS
VL: EIVLTQSPGTLSLSPGDRATLSCRATQSVGGDYFAWYQQRPGQSPRLLIYGTSRRAAGIPDRFSGSGSGTDFTLTIDRLEPEDFAVYYCRQYETSFTFGPGTKVDIK
B1 registered a stoichiometry N (Fab per trimer) of 1.
